Bridge positions count the residues as written; N and C are the ends. Square brackets hold non-standard residues; d marks the D form. Primed or numbered codes have the meaning given here. Side chains are listed from the residue outwards. Ends that are not written are not given here. * marks the point of attachment. Tyr(3-I) = N[C@@H](Cc1ccc(O)c(I)c1)C(=O)O; Phe(4-NH2) = Nc1ccc(C[C@H](N)C(=O)O)cc1; 1,4 AMB(Gd^T) = not defined here; Gd^T″ = GdDTPA-thiourea; NH(CH2)6NH2 = NCCCCCCN*; AEEA = NCCOCCOCC(=O)O

For one assay, the target named is T1, human collagen type I, acid soluble, extracted from placenta (Sigma C7774) (human, UniProt P02452 162-1218; P08123 80-1119).
T1 construct: tissue extract, gelled and dried in wells; also called dried human collagen; h-Collagen
T1 sequence (P02452 162-1218 limits assumed, chain 1 of 2): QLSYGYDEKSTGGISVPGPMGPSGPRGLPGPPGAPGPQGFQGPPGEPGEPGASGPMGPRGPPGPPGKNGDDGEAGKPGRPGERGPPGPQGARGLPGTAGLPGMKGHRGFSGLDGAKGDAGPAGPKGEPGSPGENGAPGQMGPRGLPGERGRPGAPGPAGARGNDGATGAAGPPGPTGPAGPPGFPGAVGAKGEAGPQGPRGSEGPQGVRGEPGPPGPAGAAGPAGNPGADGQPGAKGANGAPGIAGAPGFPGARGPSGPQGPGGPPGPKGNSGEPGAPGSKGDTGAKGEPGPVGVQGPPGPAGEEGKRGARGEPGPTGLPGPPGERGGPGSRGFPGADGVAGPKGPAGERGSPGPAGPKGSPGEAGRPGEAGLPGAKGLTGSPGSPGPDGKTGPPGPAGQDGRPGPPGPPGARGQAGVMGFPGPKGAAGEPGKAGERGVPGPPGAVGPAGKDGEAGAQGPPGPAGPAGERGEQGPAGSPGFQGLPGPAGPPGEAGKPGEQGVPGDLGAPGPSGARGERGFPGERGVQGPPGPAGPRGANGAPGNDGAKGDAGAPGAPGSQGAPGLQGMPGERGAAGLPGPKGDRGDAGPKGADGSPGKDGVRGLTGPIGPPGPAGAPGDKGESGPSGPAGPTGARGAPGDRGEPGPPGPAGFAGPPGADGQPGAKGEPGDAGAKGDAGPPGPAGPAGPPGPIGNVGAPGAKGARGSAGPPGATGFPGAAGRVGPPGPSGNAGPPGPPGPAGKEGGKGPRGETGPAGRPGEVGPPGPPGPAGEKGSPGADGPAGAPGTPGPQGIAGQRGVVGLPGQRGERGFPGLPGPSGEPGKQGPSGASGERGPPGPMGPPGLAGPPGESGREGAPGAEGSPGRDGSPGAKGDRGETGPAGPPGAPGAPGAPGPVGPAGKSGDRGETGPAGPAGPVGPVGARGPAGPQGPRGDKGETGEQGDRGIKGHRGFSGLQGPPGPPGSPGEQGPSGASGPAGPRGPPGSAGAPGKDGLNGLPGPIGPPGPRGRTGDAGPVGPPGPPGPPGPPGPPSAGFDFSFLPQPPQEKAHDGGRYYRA
T1 sequence (P08123 80-1119 limits assumed, chain 2 of 2): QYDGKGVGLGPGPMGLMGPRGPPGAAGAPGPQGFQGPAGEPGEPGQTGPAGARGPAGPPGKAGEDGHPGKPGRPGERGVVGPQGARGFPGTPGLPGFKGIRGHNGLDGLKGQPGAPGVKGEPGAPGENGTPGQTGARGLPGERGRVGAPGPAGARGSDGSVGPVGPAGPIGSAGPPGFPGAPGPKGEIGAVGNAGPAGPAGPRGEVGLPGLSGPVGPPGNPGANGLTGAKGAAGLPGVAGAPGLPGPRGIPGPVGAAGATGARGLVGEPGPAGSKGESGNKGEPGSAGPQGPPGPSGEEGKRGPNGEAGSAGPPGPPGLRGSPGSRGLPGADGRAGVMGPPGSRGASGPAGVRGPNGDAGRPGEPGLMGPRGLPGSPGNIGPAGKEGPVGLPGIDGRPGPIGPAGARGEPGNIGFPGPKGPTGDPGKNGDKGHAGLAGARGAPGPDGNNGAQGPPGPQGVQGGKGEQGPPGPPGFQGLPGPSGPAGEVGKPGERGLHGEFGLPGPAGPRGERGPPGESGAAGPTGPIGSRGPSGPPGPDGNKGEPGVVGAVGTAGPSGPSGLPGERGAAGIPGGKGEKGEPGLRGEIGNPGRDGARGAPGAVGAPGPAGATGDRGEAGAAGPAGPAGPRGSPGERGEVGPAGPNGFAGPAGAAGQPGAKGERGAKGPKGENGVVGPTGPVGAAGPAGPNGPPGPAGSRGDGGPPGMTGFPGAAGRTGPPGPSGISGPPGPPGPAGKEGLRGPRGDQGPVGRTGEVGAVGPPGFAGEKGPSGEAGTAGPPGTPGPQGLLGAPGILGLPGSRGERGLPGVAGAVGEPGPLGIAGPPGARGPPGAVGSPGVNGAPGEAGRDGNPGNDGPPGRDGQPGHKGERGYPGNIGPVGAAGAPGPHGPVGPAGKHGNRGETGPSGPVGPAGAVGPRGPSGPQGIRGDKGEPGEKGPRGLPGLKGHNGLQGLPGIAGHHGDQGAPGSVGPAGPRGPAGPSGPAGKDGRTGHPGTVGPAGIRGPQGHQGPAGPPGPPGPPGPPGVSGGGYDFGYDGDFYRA
The assay is described as follows: dried collagen assay.
For {Gd^T″}-GK([Gly-Gd^T″])WHCTTYFPHHVCLYG (disulfide 5-14 (inferred)) [Compound ID 965], the “% bound” value was 26%.

For {Gd^T″}-GK([Gly-Gd^T″])WHC[Tyr(3-I)]TYFPHHYCLYG (disulfide 5-14 (inferred); not fully specified (C-terminus)) [Compound ID 973], the “% bound” value was 85%.

Turning to {Gd^T″}-GK([Gly-Gd^T″])WHCTTK(Gd^T″)FPHHYCLYY (disulfide 5-14 (inferred); not fully specified (C-terminus)) [Compound ID 980], the “% bound” value came to 85%.

As for {Gd^T″}-GK([Gly-Gd^T″])WHCTTYFPHHYCL[Phe(4-NH2)](Gd^T″)G (disulfide 5-14 (inferred); not fully specified (C-terminus)) [Compound ID 971], the “% bound” value was 21%.

On to {Gd^T″}-GK([Gly-Gd^T″])WHCYTYFPHHYCVYG-{1,4 AMB(Gd^T)} (disulfide 5-14 (inferred); reading uncertain) [Compound ID 1000], for which the “% bound” value was 75%.

For {Gd^T″}-GK([Gly-Gd^T″])WHCYK(Gd^T″)YFPHHYCLYG (disulfide 5-14 (inferred); not fully specified (C-terminus)) [Compound ID 991], the “% bound” value was found to be 23%.

Regarding {Gd^T″}-GK([Gly-Gd^T″])WHCYTYFPHHYCVYG-{AEEA-Gd^T″} (disulfide 5-14 (inferred)) [Compound ID 998], the “% bound” value worked out at 71%.

As for {Gd^T″}-GK([Gly-Gd^T″])WHCTTYFPHH[Phe(4-NH2)]CLYG (disulfide 5-14 (inferred); not fully specified (C-terminus)) [Compound ID 972], the “% bound” value was determined as 3%.

As to {Gd^T″}-GK([Gly-Gd^T″])WHCYTK(Gd^T″)FPHHYCVYY (disulfide 5-14 (inferred); not fully specified (C-terminus)) [Compound ID 979], the “% bound” value came out at 87%.

Take {Gd^T″}-GK([Gly-Gd^T″])WHCTTYFPHHYCL[Phe(4-NH2)]G (disulfide 5-14 (inferred); not fully specified (C-terminus)) [Compound ID 970]: the “% bound” value came to 53%.

In the case of {Gd^T″}-GK([Gly-Gd^T″])WYCTTYFPHHYCLYG (disulfide 5-14 (inferred); not fully specified (C-terminus)) [Compound ID 990], the “% bound” value came out at 59%.

Consider {Gd^T″}-GK([Gly-Gd^T″])WHCYTK(Gd^T″)FPHHYCVYG (disulfide 5-14 (inferred); not fully specified (C-terminus)) [Compound ID 978], for which the “% bound” value amounted to 64%.

On to {Gd^T″}-GK([Gly-Gd^T″])WHCYTYFPHHYCVYG-{NH(CH2)6NH2-Gd^T″} (disulfide 5-14 (inferred)) [Compound ID 999], for which the “% bound” value was 65%.

For another assay, the target named is T2, rat collagen, acid soluble, type I, rat tail (Upstate 08-115) (rat, UniProt P02454 152-1207; P02466 86-1125).
T2 construct: tissue extract, gelled and dried in wells; also called dried rat collagen
T2 sequence (P02454 152-1207, chain 1 of 2): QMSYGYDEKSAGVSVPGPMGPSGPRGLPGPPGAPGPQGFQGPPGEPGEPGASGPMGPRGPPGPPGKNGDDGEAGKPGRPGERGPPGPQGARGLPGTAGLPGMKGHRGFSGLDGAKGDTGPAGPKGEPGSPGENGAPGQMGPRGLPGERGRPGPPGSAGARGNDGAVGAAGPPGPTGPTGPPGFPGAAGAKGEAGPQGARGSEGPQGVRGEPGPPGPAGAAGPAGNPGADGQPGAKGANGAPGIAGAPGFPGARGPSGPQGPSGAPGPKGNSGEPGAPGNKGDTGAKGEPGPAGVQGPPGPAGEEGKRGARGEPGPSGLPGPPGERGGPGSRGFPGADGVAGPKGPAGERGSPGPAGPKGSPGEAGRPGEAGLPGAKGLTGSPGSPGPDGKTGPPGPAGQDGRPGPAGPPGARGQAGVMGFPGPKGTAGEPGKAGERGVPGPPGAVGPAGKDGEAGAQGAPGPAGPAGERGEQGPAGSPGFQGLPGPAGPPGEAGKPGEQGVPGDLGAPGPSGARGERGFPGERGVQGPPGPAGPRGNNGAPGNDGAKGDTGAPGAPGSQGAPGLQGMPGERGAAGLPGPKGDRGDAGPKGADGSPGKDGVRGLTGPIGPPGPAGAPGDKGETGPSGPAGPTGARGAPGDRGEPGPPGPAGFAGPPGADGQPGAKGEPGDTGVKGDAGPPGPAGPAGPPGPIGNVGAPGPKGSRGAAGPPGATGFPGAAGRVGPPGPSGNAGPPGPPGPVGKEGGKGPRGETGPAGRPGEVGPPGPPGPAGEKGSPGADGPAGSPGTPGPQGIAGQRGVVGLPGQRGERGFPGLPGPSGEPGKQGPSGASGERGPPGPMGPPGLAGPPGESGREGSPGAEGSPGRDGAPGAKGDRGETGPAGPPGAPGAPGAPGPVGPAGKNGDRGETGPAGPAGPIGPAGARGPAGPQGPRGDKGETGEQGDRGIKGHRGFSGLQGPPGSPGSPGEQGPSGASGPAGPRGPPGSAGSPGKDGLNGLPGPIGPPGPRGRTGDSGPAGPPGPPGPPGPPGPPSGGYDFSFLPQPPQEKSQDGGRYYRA
T2 sequence (P02466 86-1125, chain 2 of 2): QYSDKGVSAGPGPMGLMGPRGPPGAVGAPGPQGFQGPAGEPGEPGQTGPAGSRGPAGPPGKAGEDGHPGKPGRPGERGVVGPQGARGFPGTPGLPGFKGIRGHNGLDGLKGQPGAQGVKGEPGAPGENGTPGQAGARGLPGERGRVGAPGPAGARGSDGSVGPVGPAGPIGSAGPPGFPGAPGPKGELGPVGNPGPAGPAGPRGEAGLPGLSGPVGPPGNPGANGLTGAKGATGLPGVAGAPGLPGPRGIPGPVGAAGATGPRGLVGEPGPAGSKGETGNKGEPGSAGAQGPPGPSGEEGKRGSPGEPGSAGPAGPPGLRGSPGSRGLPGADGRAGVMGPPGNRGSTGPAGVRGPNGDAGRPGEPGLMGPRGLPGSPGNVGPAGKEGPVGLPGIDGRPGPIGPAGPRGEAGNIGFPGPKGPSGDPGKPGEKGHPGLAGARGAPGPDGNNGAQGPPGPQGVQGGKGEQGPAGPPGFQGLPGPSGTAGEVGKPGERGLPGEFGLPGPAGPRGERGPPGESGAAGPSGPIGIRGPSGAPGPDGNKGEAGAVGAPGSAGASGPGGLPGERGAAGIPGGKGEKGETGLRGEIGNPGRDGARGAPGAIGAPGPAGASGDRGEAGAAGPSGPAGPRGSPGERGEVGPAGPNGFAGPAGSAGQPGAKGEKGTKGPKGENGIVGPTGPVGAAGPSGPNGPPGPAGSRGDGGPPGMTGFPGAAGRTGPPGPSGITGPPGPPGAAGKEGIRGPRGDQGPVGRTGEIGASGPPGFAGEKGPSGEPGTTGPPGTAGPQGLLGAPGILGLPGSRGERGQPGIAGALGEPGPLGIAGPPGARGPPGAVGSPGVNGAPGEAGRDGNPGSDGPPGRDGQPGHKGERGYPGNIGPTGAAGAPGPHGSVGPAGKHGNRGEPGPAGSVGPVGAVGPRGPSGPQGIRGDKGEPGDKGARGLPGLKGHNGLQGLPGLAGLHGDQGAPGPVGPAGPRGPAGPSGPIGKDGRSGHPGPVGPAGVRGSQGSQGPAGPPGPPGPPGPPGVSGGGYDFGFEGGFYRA
The experiment in a line: dried collagen assay.
With {Gd^T″}-GK([Gly-Gd^T″])WHCTTYFPHHVCLYG (disulfide 5-14 (inferred)) [Compound ID 965], the “% bound” value was 11%.

With {Gd^T″}-GK([Gly-Gd^T″])WHC[Tyr(3-I)]TYFPHHYCLYG (disulfide 5-14 (inferred); not fully specified (C-terminus)) [Compound ID 973], the “% bound” value came to 92%.

On to {Gd^T″}-GK([Gly-Gd^T″])WHCTTK(Gd^T″)FPHHYCLYY (disulfide 5-14 (inferred); not fully specified (C-terminus)) [Compound ID 980], for which the “% bound” value was found to be 80%.

Consider {Gd^T″}-GK([Gly-Gd^T″])WHCTTYFPHHYCL[Phe(4-NH2)](Gd^T″)G (disulfide 5-14 (inferred); not fully specified (C-terminus)) [Compound ID 971], for which the “% bound” value is 25%.

For {Gd^T″}-GK([Gly-Gd^T″])WHCYTYFPHHYCVYG-{1,4 AMB(Gd^T)} (disulfide 5-14 (inferred); reading uncertain) [Compound ID 1000], the “% bound” value is 68%.

For {Gd^T″}-GK([Gly-Gd^T″])WHCYK(Gd^T″)YFPHHYCLYG (disulfide 5-14 (inferred); not fully specified (C-terminus)) [Compound ID 991], the “% bound” value amounted to 11%.

As to {Gd^T″}-GK([Gly-Gd^T″])WHCYTYFPHHYCVYG-{AEEA-Gd^T″} (disulfide 5-14 (inferred)) [Compound ID 998], the “% bound” value was found to be 75%.

As to {Gd^T″}-GK([Gly-Gd^T″])WHCTTYFPHH[Phe(4-NH2)]CLYG (disulfide 5-14 (inferred); not fully specified (C-terminus)) [Compound ID 972], the “% bound” value is 0%.

For the molecule {Gd^T″}-GK([Gly-Gd^T″])WHCYTK(Gd^T″)FPHHYCVYY (disulfide 5-14 (inferred); not fully specified (C-terminus)) [Compound ID 979], the “% bound” value amounted to 86%.

Turning to {Gd^T″}-GK([Gly-Gd^T″])WHCTTYFPHHYCL[Phe(4-NH2)]G (disulfide 5-14 (inferred); not fully specified (C-terminus)) [Compound ID 970], the “% bound” value was 54%.

With {Gd^T″}-GK([Gly-Gd^T″])WYCTTYFPHHYCLYG (disulfide 5-14 (inferred); not fully specified (C-terminus)) [Compound ID 990], the “% bound” value stood at 62%.

Consider {Gd^T″}-GK([Gly-Gd^T″])WHCYTK(Gd^T″)FPHHYCVYG (disulfide 5-14 (inferred); not fully specified (C-terminus)) [Compound ID 978], for which the “% bound” value was found to be 66%.

As for {Gd^T″}-GK([Gly-Gd^T″])WHCYTYFPHHYCVYG-{NH(CH2)6NH2-Gd^T″} (disulfide 5-14 (inferred)) [Compound ID 999], the “% bound” value turned out to be 66%.

The values are drawn from patent US20080044360A1 (COLLAGEN MEDICAL, published 2008).
